Columns and labels:
Isoelectric point = format: physicochemical
oxidized insulin B-chain = assay: Hydrolysis of oxidized insulin B-chain (MALDI-TOF); format: biochemical; details: 50° C., enzyme-substrate molar ratio of 1:100, pH 9
Method: To 0.38 mg of the oxidized insulin B-chain (Sigma) dissolved in 1 ml of 10 mM Tris-HCl buffer, pH 9 was added 10 μl (5.5 units) of the AL enzyme. The mixture was incubated at 50° C. for 15 min and 12 h, respectively, after which one drop (approx 40 μl) of 0.1% (v/v) TFA was added to inactivate the enzyme.
Identification of the cleavage products was performed on a matrix assisted laser desorption ionisation reflectron-type time-of-flight (MALDI-TOF) mass spectrometer (REFLEX, Bruker-Franzen Analytik; Bremen, Germany).
Cleavage of oxidized insulin B-chain by the AL protease at 50° C. was investigated using an enzyme-substrate molar ratio of 1:100. The reaction products were analyzed by MALDI-TOF mass spectrometry and identified from the mass of corresponding peptide pairs.

[1] = Circular dichroism spectroscopy; format: physicochemical
Method: The conformational stability of the AL protease was examined by circular dichroism (CD) spectroscopy and compared with that of Subtilisin Carlsberg (bacterial protease, type VIII; Sigma Chemical Co., St. Louis, USA). The CD spectra of the proteins were obtained on a Jasco spectropolarimeter model J-720, at 25° C. in the far UV range from 195 to 250 nm at a scan rate of 10 nm/min using a sample cell path length of 0.1 cm. The ellipticity values (θ) for every nm wavelength increase were obtained in mdeg directly from the instrument and were recorded online in a computer. An average of 6 scans was calculated and the corresponding no-enzyme spectra were subtracted for each sample.

[2] = Calcium content by ICP-SMS; format: physicochemical; details: after treatment with chelex
Method: One millilitre of the purified AL protease (3 mg protein) solution was dialyzed for 24 h at 4° C. against 1 L of 10 mM glycine-NaOH buffer, pH 10.0, pretreated for 48 h with Chelex 100 (BioRad, Hercules, Calif., USA; […]) placed in a dialysis bag. Thereafter the dialysis was repeated three times against the buffer containing Chelex 100 (1.5 g/l) for a total period of 36 h at 4° C. The buffer was prepared from deionised water and plastic containers were used throughout. The residual calcium content In the enzyme sample was determined using Inductively Coupled Plasma-Mass Spectrometry (ICP-SMS).

casein = assay: Protease activity with casein as substrate (specific activity, pH and temperature profile); format: biochemical; details: for Optimum pH for activity: assayed at 50° C.
Method: The AL protease activity with 0.1-4% (w/v) casein and haemoglobin (Sigma), respectively, as protein substrates, was determined using a modified method of Ferrero et al. (1996). The reaction mixture in a total volume of 1 ml containing the substrate and an appropriate amount of the enzyme in 50 mM glycine-NaOH buffer, pH 10 was incubated at […] for 20 min, after which the reaction was terminated by addition of 0.5 ml trichloroacetic acid with subsequent centrifugation. To 0.5 ml supernatant was added 2.5 ml sodium carbonate followed by 0.5 ml of 1 M Folin-Ciocalteau Phenol reagent (Sigma). The reaction mixture was allowed to stand for 30 min-at room temperature before absorbance was measured at 660 nm. One unit of enzyme activity is defined as amount of the enzyme, which released 1 μg tyrosine per minute under the assay conditions.
Protease activity was determined using casein as substrate as described earlier [3.12]. The reaction mixture in a total volume of 2 ml was composed of 1% casein, 50 mM glycine-NaOH buffer, pH 10, and appropriately diluted enzyme. After 20 min incubation at 50° C. the reaction was terminated by adding equal volume of 10% trichloroacetic acid (TCA). After separation of the unreacted casein precipitate by centrifugation, 0.5 ml of clear supernatant was mixed with 2.5 ml of 0.5 M Na2CO3 and 0.5 ml of 1 N Folin-Ciocalteau's phenol reagent. After 30 min at 25° C., absorbance was measured at 660 nm against a reagent blank. One unit of protease activity was defined as the amount of enzyme that released 1 μg of amino acid equivalent to tyrosine per min under the standard assay conditions.
Both proteases were optimally active in the alkaline region.
The effect of temperature on activity of the two proteases was determined by assaying enzyme activity at different temperatures in glycine-NaOH buffer, pH 10, while the thermal stability was determined by incubating the enzymes at different temperatures followed by measuring the residual activity under standard conditions. These measurements were done both in the presence and absence of 5 mM Ca^2+. […] Its optimum temperature for activity was at 70° C. (FIG. 9A), but when incubated at that temperature the enzyme was inactivated within 1 h (FIG. 10A). […] At temperature values above 50° C. Ca^2+ was absolutely required for the thermal stability of AL-89 protease (FIG. 10B).
Assay of protease activity was performed according to Ferrero et al. with some modifications. One millilitre of the reaction mixture containing 1% casein in 50 mM glycine-NaOH buffer, pH 10.0 and an appropriate amount of enzyme was incubated at 50° C. for 20 min after which the reaction was terminated by addition of 0.5 ml of trichloroacetic acid and centrifuged. 2.5 ml sodium carbonate was added to 0.5 ml supernatant followed by 0.5 ml of 1 M Folin-Ciocalteau reagent. The reaction mixture was allowed to stand for 30 min at room temperature before measuring the absorbance at 660 nm. One unit of protease activity was defined as the amount of enzyme, which released 1 μg tyrosine per min under standard assay conditions.

[3] = Autolytic degradation by SDS-PAGE; format: physicochemical; details: incubation at 50° C. up to 24 h; not shown
Method: Autolytic degradation of the protease was investigated by SDS-PAGE. The AL protease and Subtilisin Carlsberg were individually incubated in 10 mM Tris-HCl buffer 8 for 24 h at 50° C. Electrophoresis of the enzyme samples taken at different time intervals was performed according to the method of Laemmli, on 12% polyacrylamide gel using a Mini Protean II equipment (Bio-Rad, Richmond, Calif.).

B1: AL protease: thermostable alkaline, non-Ca2+-dependent serine protease isolated from Nesterenkonia sp. nov. strain AL (DSM 15380); SEQ. ID. NO. 1 (protein, listed as Nesterenkonia sp.)
chain: QNPADSPHIGKVFFSTNQGDFVCSANIVASANQSTVATAGHCLHDGNGGQFARNFVFAPAYDYGESEHGVWAAEELVTSAEWANRGDFEHDYAFAVLETKGGTTVQQQVGTASPIAFNQPRGQYYSAYGYPAAAPFNGQELHSCHGTATNDPMGSSTQGIPCNMTGGSSGGPWFLGQGTGGAQNSVNSYGYTFLPDVMFGPYFGSGAQQNYNYAST
Isoelectric point (Isoelectric point): 4.2
Initial cleavage site in oxidized insulin B-chain (oxidized insulin B-chain): Leu^15-Ty^16
Secondary structure in the presence of SDS ([1]; 0.1-1% (w/v) SDS, data not shown): no alteration
Secondary structure after incubation ([1]; 24 h at 50° C., 10 mM glycine-NaOH buffer, pH 10.0): undisturbed
Ca^2+ content [2]: 0.109 mol/mol
Time to complete hydrolysis of casein (casein; 50 mM glycine-NaOH, pH 10 at 50° C.): ≤ 20 min
Optimum pH for activity (casein): 10
Optimum pH for activity (casein; listed as alkaline protease from Nesterenkonia sp. nov. strain): 10
Activity as % of peak activity (casein; at pH 12): about 60%
Activity as % of maximum activity (casein; between pH 7.5 to 11.5): over 90%
Optimum temperature for activity (casein; glycine-NaOH buffer, pH 10, same in presence and absence of 5 mM Ca^2+): 70 °C
Specific activity (casein; purified enzyme, casein as substrate, pH 10, 50° C., listed as Nesterenkonia sp. AL protease): 1802.3 U/mg
Ca^2+ dependence of activity and stability (casein; with and without 5 mM Ca^2+, all temperatures tested): Ca^2+ independent
Degradation on gel electrophoresis [3]: unaltered
